In the nanobody polyreactivity screen of Harvey et al. (2022):

Test: yeast display, Sf9 membrane polyspecificity reagent, FACS + sequencing; frameworks hold sequencing errors
Outline: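 After 36–48 hours of galactose induction, yeast (Saccharomyces cerevisiae BJ5465) displaying a synthetic nanobody library were stained at 4 °C for 1 hour with 10% biotinylated, detergent-solubilized Sf9 membrane reagent. Streptavidin microbeads enriched the stained cells before FACS sorting into low and high (top ~1%) gates on anti-HA and streptavidin fluorescence. Each clone's polyreactivity label reflects its gate of origin.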
For “QVQLVESGGGLVQAGGSLRLSCAASGFTFITNAMGLYRQAPGKERELVASISIGGSTNYADSVKGRFTISRDNAKNTVYLQMNSLKPEDTAVYYCAARVYRRLFLPGRYGRPLGYWGQGTQVTVSS”, the “polyreactivity (PSR sort gate)” value was “high polyreactivity”.
In the case of “QVQLVESGGGLVQAGGSLRLSCAASGFTFIYYAMGWYRQAPGKERELVAAISASGGSTYYADSVKGRFTISRDNSKNTVYLQMNSLKPEDTAVYYCDAYRVWYRGYPMGYWGQGTQVTVSS”, the “polyreactivity (PSR sort gate)” value was “high polyreactivity”.
In the case of “QVQLVESGGGLVQAGGSLRLSCAASGFTFKDNTMGWYRQAPGKEGELVAAISSRGGSTYYADSVKGRFTISRDTAKNTVYLQMNSLKPEDTAVYYCAARSHSSRSRSPGDYWGQGTQVTVSS”, the “polyreactivity (PSR sort gate)” value was “high polyreactivity”.
In the case of “QVQLVESGGGLVQAGGSLRLSCAASGFTFKFNTMGWYRQAPGKERELVAAISWRGGDTSYADSVKGRFTISRDNAKNNVYLQMNSLKPEDTAVYYCAASPRYPYWYDYWGQGTQVTVSS”, the “polyreactivity (PSR sort gate)” value was “low polyreactivity”.
With “QVQLVESGGGLVQAGGSLRLSCAASGFTFKGYAMGWYRQAPGKERELVAAITRGGSTYYADSVKGRFTISRDNAKNTVYLQMNSLKPEDTAVYYCAARGRGHGTTPNDYWGQGTQVTVSS” the “polyreactivity (PSR sort gate)” value was “high polyreactivity”.
In the case of “QVQLVESGGGLVQAGGSLRLSCAASGFTFKHYTMGWYRQAPGKERELVAAISYSGGSTYYADSVKGRFTISRDNAKNTVYLQMNSLKPEDTAVYYCAADAVKASVSYIVPYAAYDYWGQGTQVTVSS”, the “polyreactivity (PSR sort gate)” value was “low polyreactivity”.
With “QVQLVESGGGLVQAGGSLRLSCAASGFTFKINGKGWYRQAPGKEREFVATIRTSTGRTYYADSVKGRFTISRDNAKNTVYLQMNSLKPEDTAVYYCATDYLFERLLQEMDYWGQGTQVTVSS” the “polyreactivity (PSR sort gate)” value was “high polyreactivity”.
For “QVQLVESGGGLVQAGGSLRLSCAASGFTFKKYAMGWYRQAPGKERELVASITWSGGSTSYADSVKGRFTISRDNAKNTVYLQMNSRKPEDTAVYYCDAATFVYRLRYNRFDYWGQGTQVTVSS”, the “polyreactivity (PSR sort gate)” value was “high polyreactivity”.
In the case of “QVQLVESGGGLVQAGGSLRLSCAASGFTFKRNAMGWYRQAPGKERELVAAITKSGGSTYYADSVKGRFTISRDNAKNTVYLQMNSLQPEDTAVYYCNTVHYYRDYDYWGQGTQVTVSS”, the “polyreactivity (PSR sort gate)” value was “high polyreactivity”.
For “QVQLVESGGGLVQAGGSLRLSCAASGFTFKRYAMGWYRQAPGKEREFVAAITRGGGSTYYTDSVKGRFTISRDNAKNTVYLQMNSLKPEYTAVYYCAAVLYYYWRGYGPRSNRYDYWGQGTQVTVSS”, the “polyreactivity (PSR sort gate)” value was “high polyreactivity”.
For “QVQLVESGGGLVQAGGSLRLSCAASGFTFKRYAMGWYRQAPGKERELVAAISWSGGSTYYADSVKGRFTISRDNAKNTVYLQMNSLKPEDTAVYYCNAVCRFSTRREYWGQGTQVTVSS”, the “polyreactivity (PSR sort gate)” value was “high polyreactivity”.
For “QVQLVESGGGLVQAGGSLRLSCAASGFTFKSYAMGWYRQAPGKERELVAGISRNGGRTYYADSVKGRFTISRDNAKNTVYLQMNSLKPEDTAVYYCAARIYTSRDNYWGQGTQVTVSS”, the “polyreactivity (PSR sort gate)” value was “high polyreactivity”.
In the case of “QVQLVESGGGLVQAGGSLRLSCAASGFTFKSYTMGSYRQAPGKERELVAAISRRDGSTYYADSVKGRFTISRDNAKNTVYLQMNSLKPEDTAVYYCAKVWYGDRNIDRYDYWGQGTQVTVSS”, the “polyreactivity (PSR sort gate)” value was “high polyreactivity”.
In the case of “QVQLVESGGGLVQAGGSLRLSCAASGFTFKYYAMGWYRQAPGKERELVAAISSGATTYYADSVKGRFTISRDNAKNTVYLQMNSLKPEDTAVYYCNANRFRRYDWGQGTLVTVSS”, the “polyreactivity (PSR sort gate)” value was “high polyreactivity”.
For “QVQLVESGGGLVQAGGSLRLSCAASGFTFKYYAMGWYRQAPGKERELVADITRSGGSTYYADSVKGRFTISRDTAKITVYLQMNSLKPEDTAVYYCAVDPVRYPYSYDYWGQGTQVTVSS”, the “polyreactivity (PSR sort gate)” value was “high polyreactivity”.
In the case of “QVQLVESGGGLVQAGGSLRLSCAASGFTFKYYAMGWYRQAPRKERELVAAITSRGGSTYYADSVKGRFTISRDNAKNTVYLQMNSLKPEDTAVYYCAARFRKIGVAFDYWGQGTQVTVSS”, the “polyreactivity (PSR sort gate)” value was “high polyreactivity”.
In the case of “QVQLVESGGGLVQAGGSLRLSCAASGFTFKYYDMGWYRQAPGKERELVAAIDTSGGNTYYADSVKGRFTISRDNAKNTVYLQMNSLKPEDTAVYYCAATVPYYHDDYWGQGTQVTVSS”, the “polyreactivity (PSR sort gate)” value was “low polyreactivity”.
